Measured values: patent US10221404B2, “Method for modifying characteristics of a lipase” (Novozymes A/S, priority 2014, dated 2019)

Assays:
[1] = AMSA wash performance after activation with detergent and/or protease; design: key to No (RP) / Det (RP) / Sav (RP) / Det + Sav (RP): wash performance relative to reference lipase (Lipolase), RP ratio
Experimental: (§1) Washing experiments were performed using Automatic Mechanical Stress Assay (AMSA) in order to assess the wash performance in laundry. The AMSA plate has a number of slots for test solutions and a lid firmly squeezing the laundry sample, the textile to be washed against all the slot openings. During the washing time, the plate, test solutions, textile and lid were vigorously shaken to bring the test solution in contact with the textile and apply mechanical stress in a regular, periodic oscillating manner. For further description see WO02/42740 especially the paragraph “Special method embodiments” at page 23-24.
(§2) The laundry experiments were conducted in Model Detergent B, pH8. The experimental conditions are specified below:
(§3) Final adjustments to the specified pH were done with NaOH or citric acid. Water hardness was adjusted to 15° dH by addition of CaCl2 and MgCl2 (Ca^2+:Mg^2+=4:1) to the test system.
(§4) After washing the textiles were flushed in tap water and excess water was removed from the textiles using filter paper and immediately thereafter the textiles were dried at 85° C. for 5 min.
(§5) The wash performance was measured as the color change of the washed soiled textile. The soil was cream mixed with turmeric. Turmeric contains the colorant curcumin, which function as a pH indicator by having pH dependent color change. Lipase activity leads to release of free fatty acids from the cream acylglycerides and this leads to pH decrease and thereby color change of the curcumin pH indicator. Lipase wash performance can therefore be expressed as the extent of color change of light reflected-emitted from the washed soiled textile when illuminated with white light.
(§6) Color measurements were made with a professional flatbed scanner (EPSON EXPRESSION 10000XL, Atea NS, Lautrupvang 6, 2750 Ballerup, Denmark), which was used to capture an image of the washed soiled textile. To extract a value for the light intensity from the scanned images, 24-bit pixel values from the image were converted into values for red, green and blue (RGB).
(§7) Color change due to lipase activity was measured as the increase in the reflection-emitting of green light (G) relative to the sum of reflected-emitted blue (B) and red (R) light. The wash performance (RP(Wash)) of a lipase relative to a reference lipase (Lipolase™) was calculated as: RP(Wash)=(G/(B+R)(tested lipase)−G/(B+R)(no enzyme))/(G/(B+R)(lipase ref.)−G/(B+R)(no enzyme)).
Wild type RmL without or with propeptide respectively were submitted to no, detergent, protease or detergent+protease treatment prior to performance test in AMSA to test the activation level of the lipase after the treatment. […] […] Wash performance of all samples were determined by Automatic Mechanical Stress Assay (AMSA) as described above.

[2] = AMSA wash performance, propeptide dose response; settings: Model B/50 mM glycine pH 8; normalized to wash performance without inhibitor; 3 hours incubation at 4° C.
Experimental: as §1, §2, §3, §4, §5
Color measurements were made with a professional flatbed scanner (EPSON EXPRESSION 10000XL, Atea NS, Lautrupvang 6, 2750 Ballerup, Denmark), which was used to capture an image of the washed soiled textile. […]
as §7
The inhibitory effect of the isolated propeptide (PP) was determined by mixing isolated propeptide in molar excess with separately purified active RmL core-enzyme at increasing molar ratios of propeptide to lipase. […] After 3 hours incubation at 4° C. lipase wash performance of the incubated lipase-inhibitor samples were determined by Automatic Mechanical Stress Assay (AMSA) as described above. […]

[3] = Thermostability by Differential Scanning Calorimetry (DSC); assay type: physicochemical; settings: 50 mM HEPES, 100 mM NaCl, 1 mM CaCl2, pH8.0; heating rate 200 K/hr
Experimental: The thermostability of Rhizomucor miehei lipase, RmL (SEQ ID NO: 3) with or without non covalently bound native propeptide (SEQ ID NO: 4) was determined by Differential Scanning calorimetry (DSC) using a VP-Capillary Differential Scanning calorimeter (MicroCal Inc., Piscataway, N.J., USA).
The thermal denaturation temperature, Td (° C.), was taken as the top of denaturation peak (major endothermic peak) in thermograms (Cp vs. T) obtained after heating enzyme solutions in buffer (50 mM HEPES; 100 mM NaCl; 1 mM CaCl2; pH8.0) at a constant programmed heating rate of 200 K/hr. RmL without propeptide added was analyzed at a concentration of 0.42 mg/mL, where as in presence of propeptide the concentration of RmL was 0.34 mg/mL as a consequence of mixing of 440 uL enzyme solution (at 0.42 mg/mL) and 100 uL peptid solution at a concentration of 480 uM (concentration determined by amino acid analysis)
Sample- and reference-solutions (approx. 0.2 mL) were loaded into the calorimeter (reference: buffer without enzyme) from storage conditions for 3 hours (mixing) at 10° C. and thermally pre-equilibrated for approx. 20 minutes at 20° C. prior to DSC scan from 20° C. to 100° C. Denaturation temperatures were determined at an accuracy of approximately +/−1° C.

[4] = Hydrolytic activity, kinetic assay with p-nitrophenyl acyl esters; assay type: biochemical; settings: substrates C3, C6, C10, C12, C16 at 1 mM; 50 mM Tris pH 7.7, 0.4% TritonX-100; 405 nm for 5 minutes
Experimental: The hydrolytic activity of RmL with and without propeptide on various fatty acids was investigated in a kinetic assay using p-nitrophenyl acyl esters as substrate. The 100 mM stock solutions in DMSO of the substrates: p-Nitrophenyl butyrate (C3), p-Nitrophenyl caproate (C6), p-Nitrophenyl caprate (C10), p-Nitrophenyl laurate (C12) and p-Nitrophenyl palmitate (C16) (all from Sigma-Aldrich Danmark NS, Kirkebjerg Allé 84, 2605 Brondby; Cat. no.: C3:N-9876, C6: N-0502, C10: N-0252, C12: N-2002, C16: N-2752) were diluted to a final concentration of 1 mM into assay buffer (50 mM Tris; pH 7.7; 0.4% TritonX-100).
RmL with and without propeptide and appropriate controls: Buffer (negative), Lipex™ (positive) RmL with and without propeptide in 50 mM Hepes pH8.0; 10 ppm TritonX-100; 20 mM CaCl2 were added to the substrate solution in the following final concentrations: 0.01 mg/mL; 5×10^−3 mg/mL; […]; and 1.25×10^−4 mg/mL in 96-well NUNC plates (Cat. No: 260836, Kamstrupvej 90, DK-4000, Roskilde). Release of p-nitrophenol by hydrolysis of p-nitrophenyl acyl was monitored at 405 nm for 5 minutes in 10 second intervals on a Spectra max 190 (Molecular Devices GmbH, Bismarckring 39, 88400 Biberach an der Riss, GERMANY).

[5] = AMSA wash performance, specificity of inhibitory effect of propeptide
Experimental: as §1, §2, §3, §4, §5, §6, §7
The inhibitory specificity of the isolated propeptide was determined by mixing the isolated propeptide in a 320:1 molar ratio with 5 different lipases including the active RmL. All enzymes were diluted in 10 mM succinic acid buffer, pH6.5, to a concentration of 1.5 uM and were mixed (1:1) with purified propeptide dilutions. After 3 hours incubation at 4° C. the lipase performance of the incubated lipase-inhibitor samples were determined by Automatic Mechanical Stress Assay (AMSA) as described above. The relative wash performance “RP(wash)” is for each lipase normalized to the wash performance without inhibitor.

B1: RmL: Rhizomucor miehei lipase mature protein (SEQ ID NO: 3), without propeptide (protein, listed as Rhizomucor miehei)
chain: SIDGGIRAATSQEINELTYYTTLSANSYCRTVIPGATWDCIHCDATEDLKIIKTWSTLIYDTNAMVARGDSEKTIYIVFRGSSSIRNWIADLTFVPVSYPPVSGTKVHKGFLDSYGEVQNELVATVLDQFKQYPSYKVAVTGHSLGGATALLCALDLYQREEGLSSSNLFLYTQGQPRVGDPAFANYVVSTGIPYRRTVNERDIVPHLPPAAFGFLHAGEEYWITDNSPETVQVCTSDLETSDCSNSIVPFTSVLDHLSYFGINTGLCT
No (RP) ([1]; 60 minutes in 10 mM succinic acid pH6.5): 1.00 | Sav (RP) ([1]; 60 minutes in 1.35% (v/v) Savinase in 10 mM succinic acid pH6.5): 0.99 | Det + Sav (RP) ([1]; 60 minutes in 1.35% (v/v) Savinase in 77% (w/w) Detergent B): 0.84 | Det (RP) ([1]; 60 minutes in 77% (w/w) Model detergent B): 0.89 | RP (wash) Rep. 1 [2]: 1.00 | RP (wash) Rep. 2 [2]: 1.00 | RP (wash) Rep. 3 [2]: 1.00 | RP (wash) Rep. 4 [2]: 1.00 | Thermostability Td at pH 8.0 [3]: 61 °C | hydrolytic activity on p-nitrophenyl acyl esters [4]: activity in all conditions tested | With inhibitor RP (wash) ([5]; propeptide SEQ ID No: 4 in 320:1 molar ratio, 3 hours at 4° C., normalized to wash performance without inhibitor): 0.02 | No inhibitor RP (wash) ([5]; without propeptide SEQ ID No: 4, normalized per lipase): 1.00
